# Data published in PMC2730839.
# B1: benzoylformate decarboxylase (BFDC) (Pseudomonas putida) (protein)
# chain: MASVHGTTYELLRRQGIDTVFGNPGSNELPFLKDFPEDFRYILALQEACVVGIADGYAQASRKPAFINLHSAAGTGNAMGALSNAWNSHSPLIVTAGQQTRAMIGVEALLTNVDAANLPRPLVKWSYEPASAAEVPHAMSRAIHMASMAPQGPVYLSVPYDDWDKDADPQSHHLFDRHVSSSVRLNDQDLDILVKALNSASNPAIVLGPDVDAANANADCVMLAERLKAPVWVAPSAPRCPFPTRHPCFRGLMPAGIAAISQLLEGHDVVLVIGAPVFRYHQYDPGQYLKPGTRLISVTCDPLEAARAPMGDAIVADIGAMASALANLVEESSRQLPTAAPEPAKVDQDAGRLHPETVFDTLNDMAPENAIYLNESTSTTAQMWQRLNMRNPGSYYFCAAGGLGFALPAAIGVQLAEPERQVIAVIGDGSANYSISALWTAAQYNIPTIFVIMNNGTYGALRWFAGVLEAENVPGLDVPGIDFRALAKGYGVQALKADNLEQLKGSLQEALSAKGPVLIEVSTVSPVK
# Substrate: O=C(O)C(=O)c1ccccc1
# Experiment: steady-state kinetics
# Type: biochemical, Pseudomonas putida
# Conditions: thiamin diphosphate (ThDP), Mg2+ active site
protein,measurement,value
B1,Km,760 ± 90 µM
